Assay results as given in US12099068B2, “Biomarkers for graft-versus-host disease” (Incyte Corporation, priority 2018, dated 2024).

System: plasma proteins
Experiment: Plasma proteins modulated between baseline and day 28 in responders (CR, VGPR, PR; n = 19), Example 6 (Table 13)
Type: in vivo, human
Conditions: plasma protein (OLINK NPX); responders (CR, VGPR, PR; n = 19); itacitinib 200 mg or 300 mg QD with corticosteroids; day 28 vs baseline
Summary of the method: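 Longitudinal comparison, day 28 versus baseline, with steroid-naive (N=10) and steroid-refractory (N=18) patients combined. Proteins measured by OLINK proximity extension, log2 normalized protein expression. Differences tested by t tests, ANOVA, Pearson correlation, P<0.05 significant.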

Molecule | Fold Change, Increased Expression from Baseline to Day 28 | Fold Change, Decreased Expression from Baseline to Day 28
EDIL3 (protein, UniProt O43854 24-480, looked up) EGF-like repeat and discoidin …: DICDPNPCENGGICLPGLADGSFSCECPDGFTDPNCSSVVEVASDEEEPTSAGPCTPNPCHNGGTCEISEAYRGDTFIGYVCKCPRGFNGIHCQHNINECEVEPCKNGGICTDLVANYSCECPGEFMGRNCQYKCSGPLGIEGGIISNQQITASSTHRALFGLQKWYPYYARLNKKGLINAWTAAENDRWPWIQINLQRKMRVTGVITQGAKRIGSPEYIKSYKIAYSNDGKTWAMYKVKGTNEDMVFRGNIDNNTPYANSFTPPIKAQYVRLYPQVCRRHCTLRMELLGCELSGCSEPLGMKSGHIQDYQITASSIFRTLNMDMFTWEPRKARLDKQGKVNAWTSGHNDQSQWLQVDLLVPTKVTGIITQGAKDFGHVQFVGSYKLAYSNDGEHWTVYQDEKQRKDKVFQGNFDNDTHRKNVIDPPIYARHIRILPWSWYGRITLRSELLGCTEEE | 1.12 | –
SKAP1 (protein, UniProt Q86WV1 1-359, looked up) Src kinase-associated …: MQAAALPEEIRWLLEDAEEFLAEGLRNENLSAVARDHRDHILRGFQQIKARYYWDFQPQGGDIGQDSSDDNHSGTLGLSLTSDAPFLSDYQDEGMEDIVKGAQELDNVIKQGYLEKKSKDHSFFGSEWQKRWCVVSRGLFYYYANEKSKQPKGTFLIKGYGVRMAPHLRRDSKKESCFELTSQDRRSYEFTATSPAEARDWVDQISFLLKDLSSLTIPYEEDEEEEEKEETYDDIDGFDSPSCGSQCRPTILPGSVGIKEPTEEKEEEDIYEVLPDEEHDLEEDESGTRRKGVDYASYYQGLWDCHGDQPDELSFQRGDLIRILSKEYNMYGWWVGELNSLVGIVPKEYLTTAFEVEER | – | −1.8075
NQO2 (protein, UniProt P16083 1-231, looked up) Ribosyldihydronicotinamide …: MAGKKVLIVYAHQEPKSFNGSLKNVAVDELSRQGCTVTVSDLYAMNLEPRATDKDITGTLSNPEVFNYGVETHEAYKQRSLASDITDEQKKVREADLVIFQFPLYWFSVPAILKGWMDRVLCQGFAFDIPGFYDSGLLQGKLALLSVTTGGTAEMYTKTGVNGDSRYFLWPLQHGTLHFCGFKVLAPQISFAPEIASEEERKGMVAAWSQRLQTIWKEEPIPCTAHWHFGQ | 1.0895 | –
SMAD1 (protein, UniProt Q15797 1-465, looked up) Mothers against …: MNVTSLFSFTSPAVKRLLGWKQGDEEEKWAEKAVDALVKKLKKKKGAMEELEKALSCPGQPSNCVTIPRSLDGRLQVSHRKGLPHVIYCRVWRWPDLQSHHELKPLECCEFPFGSKQKEVCINPYHYKRVESPVLPPVLVPRHSEYNPQHSLLAQFRNLGQNEPHMPLNATFPDSFQQPNSHPFPHSPNSSYPNSPGSSSSTYPHSPTSSDPGSPFQMPADTPPPAYLPPEDPMTQDGSQPMDTNMMAPPLPSEINRGDVQAVAYEEPKHWCSIVYYELNNRVGEAFHASSTSVLVDGFTDPSNNKNRFCLGLLSNVNRNSTIENTRRHIGKGVHLYYVGGEVYAECLSDSSIFVQSRNCNYHHGFHPTTVCKIPSGCSLKIFNNQEFAQLLAQSVNHGFETVYELTKMCTIRMSFVKGWGAEYHRQDVTSTPCWIEIHLHGPLQWLDKVLTQMGSPHNPISSVS | – | −1.3807
PIK3AP1 (protein, UniProt Q6ZUJ8 1-805, looked up) Phosphoinositide 3-kinase …: MAASGVPRGCDILIVYSPDAEEWCQYLQTLFLSSRQVRSQKILTHRLGPEASFSAEDLSLFLSTRCVVVLLSAELVQHFHKPALLPLLQRAFHPPHRVVRLLCGVRDSEEFLDFFPDWAHWQELTCDDEPETYVAAVKKAISEDSGCDSVTDTEPEDEKVVSYSKQQNLPTVTSPGNLMVVQPDRIRCGAETTVYVIVRCKLDDRVATEAEFSPEDSPSVRMEAKVENEYTISVKAPNLSSGNVSLKIYSGDLVVCETVISYYTDMEEIGNLLSNAANPVEFMCQAFKIVPYNTETLDKLLTESLKNNIPASGLHLFGINQLEEEDMMTNQRDEELPTLLHFAAKYGLKNLTALLLTCPGALQAYSVANKHGHYPNTIAEKHGFRDLRQFIDEYVETVDMLKSHIKEELMHGEEADAVYESMAHLSTDLLMKCSLNPGCDEDLYESMAAFVPAATEDLYVEMLQASTSNPIPGDGFSRATKDSMIRKFLEGNSMGMTNLERDQCHLGQEEDVYHTVDDDEAFSVDLASRPPVPVPRPETTAPGAHQLPDNEPYIFKVFAEKSQERPGNFYVSSESIRKGPPVRPWRDRPQSSIYDPFAGMKTPGQRQLITLQEQVKLGIVNVDEAVLHFKEWQLNQKKRSESFRFQQENLKRLRDSITRRQREKQKSGKQTDLEITVPIRHSQHLPAKVEFGVYESGPRKSVIPPRTELRRGDWKTDSTSSTASSTSNRSSTRSLLSVSSGMEGDNEDNEVPEVTRSRSPGPPQVDGTPTMSLERPPRVPPRAASQRPPTRETFHPPPPVPPRGR | – | −1.7193
LAIR-2 (protein, UniProt Q6ISS4 22-152, looked up) Leukocyte-associated …: QEGALPRPSISAEPGTVISPGSHVTFMCRGPVGVQTFRLEREDRAKYKDSYNVFRLGPSESEARFHIDSVSEGNAGLYRCLYYKPPGWSEHSDFLELLVKESSGGPDSPDTEPGSSAGTVPGTEASGFDAP | – | −1.8117
XPNPEP2 (protein, UniProt O43895 22-649, looked up) Xaa-Pro aminopeptidase 2: HTKPVDLGGQDVRNCSTNPPYLPVTVVNTTMSLTALRQQMQTQNLSAYIIPGTDAHMNEYIGQHDERRAWITGFTGSAGTAVVTMKKAAVWTDSRYWTQAERQMDCNWELHKEVGTTPIVTWLLTEIPAGGRVGFDPFLLSIDTWESYDLALQGSNRQLVSITTNLVDLVWGSERPPVPNQPIYALQEAFTGSTWQEKVSGVRSQMQKHQKVPTAVLLSALEETAWLFNLRASDIPYNPFFYSYTLLTDSSIRLFANKSRFSSETLSYLNSSCTGPMCVQIEDYSQVRDSIQAYSLGDVRIWIGTSYTMYGIYEMIPKEKLVTDTYSPVMMTKAVKNSKEQALLKASHVRDAVAVIRYLVWLEKNVPKGTVDEFSGAEIVDKFRGEEQFSSGPSFETISASGLNAALAHYSPTKELNRKLSSDEMYLLDSGGQYWDGTTDITRTVHWGTPSAFQKEAYTRVLIGNIDLSRLIFPAATSGRMVEAFARRALWDAGLNYGHGTGHGIGNFLCVHEWPVGFQSNNIAMAKGMFTSIEPGYYKDGEFGIRLEDVALVVEAKTKYPGSYLTFEVVSFVPYDRNLIDVSLLSPEHLQYLNRYYQTIREKVGPELQRRQLLEEFEWLQQHTEPLA | 1.285 | –
SIGLEC10 (protein, UniProt Q96LC7 17-697, looked up) Sialic acid-binding Ig-like …: MDGRFWIRVQESVMVPEGLCISVPCSFSYPRQDWTGSTPAYGYWFKAVTETTKGAPVATNHQSREVEMSTRGRFQLTGDPAKGNCSLVIRDAQMQDESQYFFRVERGSYVRYNFMNDGFFLKVTALTQKPDVYIPETLEPGQPVTVICVFNWAFEECPPPSFSWTGAALSSQGTKPTTSHFSVLSFTPRPQDHNTDLTCHVDFSRKGVSAQRTVRLRVAYAPRDLVISISRDNTPALEPQPQGNVPYLEAQKGQFLRLLCAADSQPPATLSWVLQNRVLSSSHPWGPRPLGLELPGVKAGDSGRYTCRAENRLGSQQRALDLSVQYPPENLRVMVSQANRTVLENLGNGTSLPVLEGQSLCLVCVTHSSPPARLSWTQRGQVLSPSQPSDPGVLELPRVQVEHEGEFTCHARHPLGSQHVSLSLSVHYSPKLLGPSCSWEAEGLHCSCSSQASPAPSLRWWLGEELLEGNSSQDSFEVTPSSAGPWANSSLSLHGGLSSGLRLRCEAWNVHGAQSGSILQLPDKKGLISTAFSNGAFLGIGITALLFLCLALIIMKILPKRRTQTETPRPRFSRHSTILDYINVVPTAGPLAQKRNQKATPNSPRTPLPPGAPSPESKKNQKKQYQLPSFPEPKSSTQAPESQESQEELHYATLNFPGVRPRPEARMPKGTQADYAEVKFQ | – | −1.4974
PRTG (protein, UniProt Q2VWP7 36-1150, looked up) Protogenin: FSELSFVKEPQDVTVTRKDPVVLDCQAHGEVPIKVTWLKNGAKMSENKRIEVLSNGSLYISEVEGRRGEQSDEGFYQCLAMNKYGAILSQKAHLALSTISAFEVQPISTEVHEGGVARFACKISSHPPAVITWEFNRTTLPMTMDRITALPTGVLQIYDVSQRDSGNYRCIAATVAHRRKSMEASLTVIPAKESKSFHTPTIIAGPQNITTSLHQTVVLECMATGNPKPIISWSRLDHKSIDVFNTRVLGNGNLMISDVRLQHAGVYVCRATTPGTRNFTVAMATLTVLAPPSFVEWPESLTRPRAGTARFVCQAEGIPSPKMSWLKNGRKIHSNGRIKMYNSKLVINQIIPEDDAIYQCMAENSQGSILSRARLTVVMSEDRPSAPYNVHAETMSSSAILLAWERPLYNSDKVIAYSVHYMKAEGLNNEEYQVVIGNDTTHYIIDDLEPASNYTFYIVAYMPMGASQMSDHVTQNTLEDVPLRPPEISLTSRSPTDILISWLPIPAKYRRGQVVLYRLSFRLSTENSIQVLELPGTTHEYLLEGLKPDSVYLVRITAATRVGLGESSVWTSHRTPKATSVKAPKSPELHLEPLNCTTISVRWQQDVEDTAAIQGYKLYYKEEGQQENGPIFLDTKDLLYTLSGLDPRRKYHVRLLAYNNIDDGYQADQTVSTPGCVSVRDRMVPPPPPPHHLYAKANTSSSIFLHWRRPAFTAAQIINYTIRCNPVGLQNASLVLYLQTSETHMLVQGLEPNTKYEFAVRLHVDQLSSPWSPVVYHSTLPEAPAGPPVGVKVTLIEDDTALVSWKPPDGPETVVTRYTILYASRKAWIAGEWQVLHREGAITMALLENLVAGNVYIVKISASNEVGEGPFSNSVELAVLPKETSESNQRPKRLDSADAKVYSGYYHLDQKSMTGIAVGVGIALTCILICVLILIYRSKARKSSASKTAQNGTQQLPRTSASLASGNEVGKNLEGAVGNEESLMPMIMPNSFIDAKGGTDLIINSYGPIIKNNSKKKWFFFQDSKKIQVEQPQRRFTPAVCFYQPGTTVLISDEDSPSSPGQTTSFSRPFGVAADTEHSANSEGSHETGDSGRFSHESNDEIHLSSVISTTPPNL | 1.1026 | –
